Reference: patent US8299032B2, “Self-assembling peptide and gel produced from the same” (Menicon Co., Ltd., priority 2005, dated 2012)

Tests used:
Assay type in all cases: physicochemical
[1] = Visible light transmittance of peptide gel (380 to 780 nm); conditions: for Visible Light Transmittance (average, 380 to 780 nm): gel of 0.5% by weight peptide in 0.1 M Tris-HCl (pH 7.5), optical path length 10 mm; for decreasing ratio of visible light transmittance: after 2 months at room temperature versus before storage; for visible light transmittance (average) after standing: gel allowed to stand at room temperature for 2 months; for long-term stability of gel (no white turbidity): room temperature, 2 months
From the text: In a case where the gel of the present invention is used, for example, as a scaffold for a three-dimensional culture of the cells, it is desired that the used concentration of the self-assembling peptide of the present invention upon gel formation in a medium for cell culture is preferably 0.3% by weight or more, and more preferably 0.5% by weight or more, from the viewpoint of easiness in gel formation, and that the used concentration of the peptide is preferably 5% by weight or less, and more preferably 2% by weight or less, from the viewpoint of easy miscibility with the cells. In addition, in such a case, it is preferable that the gel is transparent, from the viewpoint of easiness in cell observation with a fluorescent microscope or the like. For example, in a gel containing 0.5% by weight of a self-assembling peptide, it is desired that the visible light transmittance which is determined in terms of absorbance at 380 to 780 nm in a cell having an optical path of 10 mm is at least 50%/cm, and it is desired that the visible light transmittance is preferably 70%/cm or more, and more preferably 90% 1 cm or more. Further, it is desired that the visible light transmittance of the gel after allowing it to stand at room temperature for a long period of time, for example, 2 months, is preferably 50%/cm or more, more preferably 70%/cm or more, and even more preferably 90%/cm or more, from the viewpoint of long-term stability of the gel, and that the decreasing ratio (%) of the visible light transmittance (100−(visible light transmittance after storage/visible light transmittance before storage×100)) is preferably 30% or less, more preferably 20% or less, and even more preferably 10% or less. The transparency of the gel can be determined with UV/VIS measurement apparatus as described in Examples set forth below.
Peptide Nos. 1 to 9 synthesized in Production Examples 1 and 2 were dissolved in 0.1 M Tris-HCl (pH 7.5), to prepare a gel composed of a 0.5% by weight peptide solution. The visible light transmittance of the prepared gel within the range of from 380 to 780 nm was determined using a cell having an optical path length of 10 mm and trade name V-550 UV/VIS Spectrometer (manufactured by JASCO).
Therefore, it could be seen that each of Peptide Nos. 1 to 9 mentioned above formed a transparent gel. In addition, of the above gels, the gel comprising each of Peptide Nos. 1, 4, 6, or 7 was allowed to stand at room temperature for 2 months, and the visible light transmittance was determined in the same manner as above. As a result, an average thereof was respectively 88, 87, 91, or 93%/cm, and the decreasing ratio was respectively 9.3, 5.4, 6.2, or 4.1%. In other words, the gel after 2 months passed from the preparation also maintained high visible light transmittance.

[2] = Gel formation, test tube placed up-side-down; set-up: key to Gel Formation: Excellent: those in which the contents did not drop off were evaluated as the gel formation being “excellent”; Poor: those in which the contents dropped off were evaluated as being “poor.”; conditions: 37° C. for 24 hours; for Gel Formation: peptide 0.5% by weight; for gel formation in neutral aqueous solution (summary of Table 11): neutral aqueous solutions, 0.5% by weight
Experimental: Peptide Nos. 1, 2, 4, 5, 6, 10 and 11 synthesized in Production Examples 1 and 2 were dissolved in each of aqueous solutions listed in Table 11. A 1.5 mL test tube was charged with 1 mL of the resulting peptide-containing aqueous solution. Next, the test tube was allowed to stand at 37° C. for 24 hours.

[3] = Dynamic viscoelasticity of peptide aqueous solution (storage modulus G′, loss modulus G″); conditions: 0.5 wt %, acidic aqueous solution (pH 3.5)
From the text: In addition, the term “gel” as used herein refers to a viscoelastic substance having both viscous property and elastic property. Concretely, the gel refers to a substance satisfying the formula G′>G″, in a case where the gel is subjected to dynamic viscoelasticity measurement to determine a storage elastic modulus G′ and a loss elastic modulus G″.
The dynamic viscoelasticity can be determined with a dynamic viscoelasticity measurement apparatus as described in Examples set forth below. Concretely, the dynamic viscoelasticity can be determined by placing a sample on an iron plate, compressing the sample with an iron cone, and monitoring a stress applied to a motor rotating the iron cone when the cone is rotated.
The storage elastic modulus G′ and the loss elastic modulus G″ of a 0.5% by weight peptide (Peptide Nos. 1 to 10 mentioned above)-containing aqueous solution were determined with an instrument under the trade name of AR1000 (manufactured by TA Instruments Japan). […] Next, the 0.5% by weight peptide-containing aqueous solution was compressed, and a stress applied to a motor was monitored when the iron cone was rotated, while varying the frequency of the cone within the range of 0.1 to 10 rad/sec.

[4] = Confirmation of beta-sheet structure formation by circular dichroism measurement; conditions: 3×10^−3 M peptide in 0.1 M Tris-HCl (pH 7.5)
Experimental: The formation of each of the beta (β)-sheet structures of Peptide Nos. 1 to 9 and 12 synthesized in Production Examples 1 and 2 mentioned above was confirmed in accordance with circular dichroism measurement method. Concretely, each of the peptides was dissolved in 0.1 M Tris-HCl (pH 7.5) to prepare a 3×10^−3 M peptide solution. The resulting peptide solution was filled into a quartz cell having an optical path length of 0.5 mm (manufactured by JASCO, trade name: 110J cylindrical cell, volume: 0.04 mL), and the quartz cell was set in trade name J-820K Spectropolarimeter (manufactured by JASCO), and the molar ellipticities at 195 to 260 nm for the peptide solutions were determined in accordance with the circular dichroism measurement method.

Sequence | Visible Light Transmittance (average, 380 to 780 nm) [1] | Gel Formation ([2]; Tris-HCl 0.1 M pH 7.5) | gel formation in neutral aqueous solution (summary of Table 11) [2] | decreasing ratio of visible light transmittance [1] | visible light transmittance (average) after standing [1] | long-term stability of gel (no white turbidity) [1] | Gel Formation ([2]; PBS pH 7.4) | further results
RANARADARANARADA (Synthetic self-assembling peptide of the invention) [Peptide No. 2, self-assembling peptide of the present invention] | 77% | Excellent | formed into gel in various neutral aqueous solutions |  |  |  |  | 
RASARADARASA (Synthetic self-assembling peptide of the invention) [Peptide No. 7, self-assembling peptide of the present invention] | 97% |  |  | 4.1% | 93 %/cm | stable for a long period of time without becoming white turbid |  | 
RAAARADARAAARADA (Synthetic self-assembling peptide of the invention) [Peptide No. 3, self-assembling peptide of the present invention] | 91% |  |  |  |  |  |  | 
SAEAKAEASAEAKAEA (Synthetic self-assembling peptide of the invention) [Peptide No. 9, self-assembling peptide of the present invention] | 93% |  |  |  |  |  |  | 
RASARASARASARADA (Synthetic self-assembling peptide of the invention) [Peptide No. 6, self-assembling peptide of the present invention] | 97% | Excellent | formed into gel in various neutral aqueous solutions | 6.2% | 91 %/cm | stable for a long period of time without becoming white turbid |  | 
RADARADARADARADA [Peptide No. 10, reference compound] |  |  | did not form into gel in a neutral aqueous solution |  |  |  | Poor | gel formation by dynamic viscoelasticity [3]: formed the gel in an acidic aqueous solution
RASARADARASARADA (Synthetic self-assembling peptide of the invention) [Peptide No. 1, self-assembling peptide of the present invention] | 97% | Excellent | formed into gel in various neutral aqueous solutions | 9.3% | 88 %/cm | stable for a long period of time without becoming white turbid | Excellent | Gel Formation ([2]; D-MEM/F12(1:1) Medium pH 7.5): Excellent; Gel Formation ([2]; Tris-HCl 0.05 M pH 7.5): Excellent; Gel Formation ([2]; Tris-HCl 0.2 M pH 7.5): Excellent; Gel Formation ([2]; Tris-HCl 0.4 M pH 7.5): Excellent; Gel Formation ([2]; Tris-HCl 0.6 M pH 7.5): Excellent; Gel Formation ([2]; Tris-HCl 0.8 M pH 7.5): Excellent; Gel Formation ([2]; Tris-HCl 1 M pH 7.5): Excellent
RADARASARASARADA (Synthetic self-assembling peptide of the invention) [Peptide No. 5, self-assembling peptide of the present invention] | 78% | Excellent | formed into gel in various neutral aqueous solutions |  |  |  |  | 
HKHQHDHKHQHDHKHQHD (Synthetic peptide which is not a peptide of the invention) [Peptide No. 12, peptide not having a nonpolar amino acid residue, not a peptide of the present invention] |  |  |  |  |  |  |  | formation of beta (β)-sheet structure in aqueous solution [4]: did not form a beta(β)-sheet structure
RASARADARADARASA (Synthetic self-assembling peptide of the invention) [Peptide No. 4, self-assembling peptide of the present invention] | 92% | Excellent | formed into gel in various neutral aqueous solutions | 5.4% | 87 %/cm | stable for a long period of time without becoming white turbid | Excellent | Gel Formation ([2]; Tris-HCl 0.05 M pH 7.5): Excellent; Gel Formation ([2]; Tris-HCl 0.2 M pH 7.5): Excellent; Gel Formation ([2]; Tris-HCl 0.4 M pH 7.5): Excellent; Gel Formation ([2]; Tris-HCl 0.6 M pH 7.5): Excellent; Gel Formation ([2]; Tris-HCl 0.8 M pH 7.5): Excellent; Gel Formation ([2]; Tris-HCl 1 M pH 7.5): Excellent
RFDFRFDFRFDFRFDF (Synthetic peptide which is not a peptide of the invention) [compound 11, comparative peptide, which is not self-assembling peptide of the present invention; charge at pH 7.0 is 0, reference compound] |  |  | did not form into gel in a neutral aqueous solution |  |  |  | Poor | 
KASAKAEAKASAKAEA (Synthetic self-assembling peptide of the invention) [Peptide No. 8, self-assembling peptide of the present invention] | 94% |  |  |  |  |  |  | 
